Read-outs that look alike come from different tables or passages of the source.
T1: cynomolgus monkey PVRIG expressed on cells (cynomolgus monkey, UniProt A0A2K5WVV8 1-322)
T1 construct: whole, on cells; also called Monkey PVRIG FACS; cells overexpressing cynomolgus monkey PVRIG
T1 sequence: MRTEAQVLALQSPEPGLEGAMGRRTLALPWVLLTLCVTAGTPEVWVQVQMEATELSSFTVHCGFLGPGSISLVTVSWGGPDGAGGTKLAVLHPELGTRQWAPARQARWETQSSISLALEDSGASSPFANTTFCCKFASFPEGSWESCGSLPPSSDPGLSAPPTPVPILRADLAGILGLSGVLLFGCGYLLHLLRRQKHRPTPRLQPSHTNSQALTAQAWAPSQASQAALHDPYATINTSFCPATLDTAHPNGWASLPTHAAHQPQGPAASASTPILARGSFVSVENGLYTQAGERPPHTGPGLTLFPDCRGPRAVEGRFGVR

T2: human TIGIT recombinant protein (human, UniProt Q495A1 22-141, limits assumed)
T2 construct: construct not described; also called human TIGT recombinant protein
T2 sequence (looked up): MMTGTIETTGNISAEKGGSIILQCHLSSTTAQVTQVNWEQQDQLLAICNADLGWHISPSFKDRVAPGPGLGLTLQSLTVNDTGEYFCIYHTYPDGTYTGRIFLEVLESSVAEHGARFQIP

T3: human TIGIT expressed on cells (human, UniProt Q495A1 22-244)
T3 construct: whole, on cells; also called cells overexpressing human TIGIT
T3 sequence (looked up): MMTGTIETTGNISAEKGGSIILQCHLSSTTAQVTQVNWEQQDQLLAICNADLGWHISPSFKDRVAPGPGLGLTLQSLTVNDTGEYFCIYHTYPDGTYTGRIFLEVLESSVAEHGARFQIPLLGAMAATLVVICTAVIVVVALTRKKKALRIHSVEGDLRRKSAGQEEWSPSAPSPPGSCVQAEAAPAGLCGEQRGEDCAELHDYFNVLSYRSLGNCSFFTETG

T4: his-tagged cynomolgus monkey PVRIG (cyno-PVRIG-his) recombinant protein (cynomolgus monkey)
T4 construct: expressed in HEK293, purified by Ni-NTA; also called Monkey PVRIG-his; cynomolgus monkey PVRIG recombinant protein
T4 chain: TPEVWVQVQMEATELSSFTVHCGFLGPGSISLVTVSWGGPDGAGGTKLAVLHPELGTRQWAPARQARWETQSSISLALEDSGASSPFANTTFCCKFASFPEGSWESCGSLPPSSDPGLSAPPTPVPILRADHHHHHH

T5: human TIGIT antigen (AcroBiosystem, TIT-H52H3) (human, UniProt Q495A1 22-141)
T5 sequence (looked up): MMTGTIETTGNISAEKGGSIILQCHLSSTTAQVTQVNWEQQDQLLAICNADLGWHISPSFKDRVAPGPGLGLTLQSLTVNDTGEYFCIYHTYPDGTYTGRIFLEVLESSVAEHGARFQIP


Assays:
[1] = biological target: T1, cynomolgus monkey PVRIG expressed on …; assay: FACS, cells overexpressing target
Procedure: (§1) The expression plasmid carrying human or cynomolgus monkey PVRIG gene sequence was transfected into HEK293 cells, and the over-expressing stable transfection monoclonal cell strain was obtained by antibiotic screening and infinite dilution. Overexpressing cells were seeded into a 96-well plate at 2×10⁵ cells/per well. The cells were centrifuged at 300 g for 5 min, the supernatant was then removed, 100 μL of the test antibody was added, and the mixture was incubated at 4° C. for 1 h. The mixture was centrifuged, the supernatant was removed, the plate was washed 3 times with 200 μL of wash buffer (PBS+2% FBS), and then 100 μL of an anti-human IgG secondary antibody (Invitrogen, A-11013) labeled with Alexa Fluor 488 diluted at 1:500 was added. The mixture was incubated at 4° C. for 1 h. The plate was centrifuged, and the supernatant was removed. The plate was washed 3 times with 200 μL of wash buffer (PBS+2% FBS). The cells were resuspended in 100 μL of PBS and tested on a flow cytometer (BD FACS Calibur or BD FACS Canto_II).
(§2) Binding of the humanized anti-PVRIG/TIGIT bispecific antibodies to human and cynomolgus monkey PVRIG and their blocking of the ligand of human PVRIG were detected according to the methods of Examples 4, 5 and 6.

[2] = biological target: T2, human TIGIT recombinant protein; assay: competition ELISA; human TIGIT, competitor human PVR
Procedure: (§3) The h-PVRIG-mIgG2a Fc protein (at a concentration of 1 μg/mL) was coated on the 96-well microplate at 100 μL per well, and incubated overnight at 4° C. The plate was washed three times with wash buffer at 250 μL per well. For each wash, the plate was shaken for 10 s to ensure adequate cleaning. A blocking solution was added at 300 μL/well, and the plate was incubated at room temperature for 1 h. The plate was washed three times with wash buffer at 250 μL per well. For each wash, the plate was shaken for 10 s to ensure adequate cleaning. 50 μL of diluted test anti-PVRIG antibody and 50 μL of his-tagged ligand PVRL2 were added to each well, and the plate was incubated at 37° C. for 1 h. The plate was washed three times with wash buffer at 250 μL per well. The HRP-labeled anti-his-tagged secondary antibody (Genscrpit) diluted at 1:2000 was added at 100 μL per well. The plate was incubated at 37° C. for 1 h. The plate was washed three times with wash buffer at 250 μL per well. TMB was added at 100 μL/well, and the plate was incubated in the dark for 15 min. 0.16 M sulfuric acid was added at 50 μL/well. OD values at 450 nm were measured using a Thermo MμtLtiSkanFc microplate reader, and the IC₅₀ values of the anti-PVRIG antibodies blocking the binding of PVRIG to PVRL2 were calculated.
(§4) The experiments were carried out according to the methods of Example 4, Example 5 and Example 6 (corresponding receptors and ligands were replaced with human TIGIT and human PVR), and the results are shown in Table 27.

[3] = biological target: T2, human TIGIT recombinant protein; assay: ELISA, coated antigen
Procedure: (§5) A human, cynomolgus monkey, or mouse PVRIG protein (at a concentration of 1 μg/mL) was coated on a 96-well microplate at 100 μL per well, and incubated overnight at 4° C. The plate was washed three times with wash buffer at 250 μL per well. For each wash, the plate was shaken for 10 s to ensure adequate cleaning. A blocking solution (PBS+0.05% Tween20+1% BSA) was added at 300 μL/well, and the plate was incubated at room temperature for 1 h. The plate was washed three times with wash buffer at 250 μL per well. For each wash, the plate was shaken for 10 s to ensure adequate cleaning. Dilutions of the test anti-PVRIG antibodies were added at 100 μL/well. The plate was incubated at 37° C. for 1 h. The plate was washed three times with wash buffer at 250 μL per well. The […] anti-human IgG secondary antibody (Sigma, A8667) was added at 100 μL per well. The plate was incubated at 37° C. for 1 h. The plate was washed three times with wash buffer at 250 μL per well. TMB was added at 100 μL/well, and the plate was incubated in the dark for 15 min. 0.16 M sulfuric acid was added at 50 μL/well. The OD values at 450 nm were read by using a Thermo MultiSkanFc microplate reader, and the EC₅₀ values of the binding of the anti-PVRIG antibodies to PVRIG were calculated.
(§6) Similarly to Examples 4, 5 and 6, the binding of humanized anti-PVRIG/TIGIT bispecific antibodies to human and cynomolgus monkey TIGIT and blocking of binding of human TIGIT to ligand were detected, where PVRIG protein was replaced with TIGIT and PVRL2 was replaced with PVR.

[4] = biological target: cynomolgus monkey TIGIT recombinant protein (cynomolgus monkey, UniProt A0A7N9I9V4 89-209); assay: ELISA, coated antigen
Procedure: as §5, §6

[5] = biological target: T2, human TIGIT recombinant protein; assay: ELISA, coated antigen; remark: listed apart in the source
Procedure: as §5, §4

[6] = biological target: T3, human TIGIT expressed on cells; assay: FACS, cells overexpressing target
Procedure: as §1, §4

[7] = biological target: T6, cynomolgus monkey TIGIT expressed on cells (cynomolgus monkey, UniProt A0A7N9I9V4 89-312); assay: FACS, cells overexpressing target
T6 construct: whole, on cells; also called cells overexpressing cynomolgus monkey TIGIT
Procedure: as §1, §6

[8] = biological target: T3, human TIGIT expressed on cells; assay: FACS, cells overexpressing target; remark: listed apart in the source
Procedure: as §1, §6

[9] = biological target: T2, human TIGIT recombinant protein; assay: competition ELISA; human TIGIT, competitor human PVR; remark: listed apart in the source
Procedure: as §3, §6

[10] = biological target: T4, his-tagged cynomolgus monkey PVRIG …; assay: ELISA, coated antigen
Procedure: as §5, §2

[11] = biological target: T5, human TIGIT antigen (AcroBiosystem, …); assay: SPR (Biacore X100), antibody captured on Protein A chip, 1:1 fit
Text: The affinity of the humanized bispecific antibodies for human PVRIG, cynomolgus monkey PVRIG and human TIGIT was detected using Biacore. Humanized bispecific antibodies were each captured on a Protein A biosensor chip (GE lifesciences, 29127557) of a Biacore instrument (Biacore X100, GE), and then human PVRIG antigen (AcroBiosystem, PVG-H52H4), cynomolgus monkey PVRIG antigen (SEQ ID NO: 1), or human TIGIT antigen (AcroBiosystem, TIT-H52H3) at a series of concentration gradients each flowed over the chip surface. The reaction signals were detected in real time using a Biacore instrument (Biacore X100, GE) to obtain association and dissociation curves. The data obtained from the experiment were fitted using the (1:1) Binding model with the BiacoreX100 evaluation software 2.0 GE to obtain affinity values (see Table 31).

| Binder | binding result [1] | IC50 [2] [nM] | EC50 [3] [nM] | EC50 [4] [nM] | EC50 [5] [nM] | EC50 [6] [nM] | EC50 [7] [nM] | EC50 [8] [nM] | IC50 [9] [nM] | binding result [10] | Kd [11] [nM] | koff [11] [s⁻¹] | kon [11] [M⁻¹ s⁻¹] |
| --- | --- | --- | --- | --- | --- | --- | --- | --- | --- | --- | --- | --- | --- |
| anti-TIGIT antibody 1708 (antibody, human IgG4 S228P, kappa, V domains shown, human IgG4 subtype with S228P; kappa light chain) VH: EVQLVQSGAEVKKPGASVKVSCKASGYTFTNYWMHWVRQAPGQGLEWMGRIDPDSTGSKYNEKFKTRVTMTRDTSTSTVYMELSSLRSEDTAVYYCAREGAYGYYFDYWGQGTLVTVSS VL: DIQMTQSPSSLSASVGDRVTITCRASENIYSYLAWYQQKPGKSPKLLIYNARTLAEGVPSRFSGSGSGTDFTLTISSLQPEDFATYYCQYHSGSPLPFGGGTKVEIKR | no binding | 0.87 | 0.133 | 0.104 | 0.055 | 0.74 | 0.003 | 0.0027 | 0.779 | no binding |  |  |  |
| anti-PVRIG/TIGIT bispecific antibody 1708-151-3 (bispecific antibody, human IgG4 S228P, kappa) heavy: not shown light: HVQLVESGGGSVQAGGSLRLSCVASASGFTYRPYCMAWFRQAPGKEREAVAGIDIFGGTTYADSVKGRFTASRDNAGFSLFLQMNDLKPEDTAMYYCAAGDSPDGRCPPLGQGLNYWGQGTQVTVSSGGGGSGGGGSDIQMTQSPSSLSASVGDRVTITCRASENIYSYLAWYQQKPGKSPKLLIYNARTLAEGVPSRFSGSGSGTDFTLTISSLQPEDFATYYCQYHSGSPLPFGGGTKVEIKRTVAAPSVFIFPPSDEQLKSGTASVVCLLNNFYPREAKVQWKVDNALQSGNSQESVTEQDSKDSTYSLSSTLTLSKADYEKHKVYACEVTHQGLSSPVTKSFNRGEC |  | 0.62 |  |  | 0.069 | 1.92 |  |  |  |  |  |  |  |
| humanized anti-PVRIG/TIGIT bispecific antibody 1708-151H8 (bispecific antibody, human IgG4 S228P, kappa) heavy: not shown light: DIQMTQSPSSLSASVGDRVTITCRASENIYSYLAWYQQKPGKSPKLLIYNARTLAEGVPSRFSGSGSGTDFTLTISSLQPEDFATYYCQYHSGSPLPFGGGTKVEIKRTVAAPSVFIFPPSDEQLKSGTASVVCLLNNFYPREAKVQWKVDNALQSGNSQESVTEQDSKDSTYSLSSTLTLSKADYEKHKVYACEVTHQGLSSPVTKSFNRGEC |  |  | 0.184 | 0.135 |  |  | 0.011 | 0.006 | 1.09 |  |  |  |  |
| humanized anti-PVRIG/TIGIT bispecific antibody 1708-39H2 (bispecific antibody, human IgG4 S228P, kappa) heavy: not shown light: DIQMTQSPSSLSASVGDRVTITCRASENIYSYLAWYQQKPGKSPKLLIYNARTLAEGVPSRFSGSGSGTDFTLTISSLQPEDFATYYCQYHSGSPLPFGGGTKVEIKRTVAAPSVFIFPPSDEQLKSGTASVVCLLNNFYPREAKVQWKVDNALQSGNSQESVTEQDSKDSTYSLSSTLTLSKADYEKHKVYACEVTHQGLSSPVTKSFNRGEC |  |  | 0.135 | 0.105 |  |  | 0.005 | 0.005 | 0.812 |  | 0.0808 | 0.000113 | 1.39e+06 |
| anti-PVRIG/TIGIT bispecific antibody 1708-151-4 (bispecific antibody, human IgG4 S228P, kappa) heavy: not shown light: DIQMTQSPSSLSASVGDRVTITCRASENIYSYLAWYQQKPGKSPKLLIYNARTLAEGVPSRFSGSGSGTDFTLTISSLQPEDFATYYCQYHSGSPLPFGGGTKVEIKRTVAAPSVFIFPPSDEQLKSGTASVVCLLNNFYPREAKVQWKVDNALQSGNSQESVTEQDSKDSTYSLSSTLTLSKADYEKHKVYACEVTHQGLSSPVTKSFNRGECGGGGSGGGGSHVQLVESGGGSVQAGGSLRLSCVASASGFTYRPYCMAWFRQAPGKEREAVAGIDIFGGTTYADSVKGRFTASRDNAGFSLFLQMNDLKPEDTAMYYCAAGDSPDGRCPPLGQGLNYWGQGTQVTVSS |  | 0.69 |  |  | 0.054 | 1 |  |  |  |  |  |  |  |

From US20240376207A1 (JIANGSU HENGRUI PHARMACEUTICALS, published 2024)
